The text below walks through data of US20120219559A1 (Johns Hopkins, published 2012).

Assay [1] addresses T1, human B7-H2, full length, expressed on cells (B7-H2+293T cells) (human, UniProt O75144 19-302).
T1 construct: This id also stands for endogenous B7-H2 on monocyte-derived dendritic cells in the functional rows; also called ICOSL; ICOSLG
T1 sequence: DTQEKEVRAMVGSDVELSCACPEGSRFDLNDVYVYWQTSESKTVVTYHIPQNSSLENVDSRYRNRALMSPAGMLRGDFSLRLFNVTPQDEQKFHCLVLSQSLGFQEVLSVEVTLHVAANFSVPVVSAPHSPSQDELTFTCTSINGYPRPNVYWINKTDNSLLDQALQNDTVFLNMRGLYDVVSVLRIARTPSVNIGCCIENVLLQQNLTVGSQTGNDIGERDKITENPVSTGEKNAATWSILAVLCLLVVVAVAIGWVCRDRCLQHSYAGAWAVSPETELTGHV
Nature of the assay: flow cytometry on 293T cells transfected with full length human B7-H2; B7-2Ig alone. (Flow cytometry measures light scatter and fluorescence of single cells or particles in a stream.)

Assay [2] deals with T2, human B7-1 (CD80) expressed on 293T cells (human, UniProt P33681 35-288).
T2 construct: whole, on cells
T2 sequence (looked up): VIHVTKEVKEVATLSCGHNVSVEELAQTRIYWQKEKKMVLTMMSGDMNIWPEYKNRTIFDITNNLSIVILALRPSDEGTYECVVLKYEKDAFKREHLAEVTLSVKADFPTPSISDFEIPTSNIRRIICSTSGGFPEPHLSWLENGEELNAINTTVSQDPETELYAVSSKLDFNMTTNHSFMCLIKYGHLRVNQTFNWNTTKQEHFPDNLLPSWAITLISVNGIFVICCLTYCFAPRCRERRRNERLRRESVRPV
Briefly: CDS well image, 293T cells transfected with the human gene, stained with the human fusion protein.

In assay [3] the target is T3, human B7-DC expressed on 293T cells (human, UniProt Q9BQ51 20-273).
T3 construct: whole, on cells
T3 sequence (looked up): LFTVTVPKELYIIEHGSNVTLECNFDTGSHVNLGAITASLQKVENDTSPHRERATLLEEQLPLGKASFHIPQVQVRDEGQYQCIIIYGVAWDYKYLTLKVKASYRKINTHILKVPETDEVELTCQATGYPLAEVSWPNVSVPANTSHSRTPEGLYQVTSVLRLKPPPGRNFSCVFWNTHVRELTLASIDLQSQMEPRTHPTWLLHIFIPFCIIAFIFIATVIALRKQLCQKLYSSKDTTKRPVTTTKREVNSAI
The description is as above.

Assay [4] has as its target T4, human B7-2 (CD86, B70) expressed on 293T cells (human, UniProt P42081 24-329).
T4 construct: whole, on cells
T4 sequence (looked up): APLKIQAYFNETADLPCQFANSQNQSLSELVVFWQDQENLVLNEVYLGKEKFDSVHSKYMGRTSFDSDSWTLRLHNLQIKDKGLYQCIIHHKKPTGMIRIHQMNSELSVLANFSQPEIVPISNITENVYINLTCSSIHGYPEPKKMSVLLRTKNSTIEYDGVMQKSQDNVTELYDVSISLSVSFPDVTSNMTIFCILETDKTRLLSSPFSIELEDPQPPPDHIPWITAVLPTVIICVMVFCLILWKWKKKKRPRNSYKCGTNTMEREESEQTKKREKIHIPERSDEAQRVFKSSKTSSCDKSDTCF
The description is as above.

Assay [5] concerns the target T5, human B7-H1 expressed on 293T cells (human, UniProt Q9NZQ7 19-290).
T5 construct: whole, on cells
The assay is described as above.

The target of assay [6] is T6, human B7-H3, 4Ig form, expressed on 293T cells (human, UniProt Q5ZPR3 29-534).
T6 construct: whole, on cells
T6 sequence (looked up): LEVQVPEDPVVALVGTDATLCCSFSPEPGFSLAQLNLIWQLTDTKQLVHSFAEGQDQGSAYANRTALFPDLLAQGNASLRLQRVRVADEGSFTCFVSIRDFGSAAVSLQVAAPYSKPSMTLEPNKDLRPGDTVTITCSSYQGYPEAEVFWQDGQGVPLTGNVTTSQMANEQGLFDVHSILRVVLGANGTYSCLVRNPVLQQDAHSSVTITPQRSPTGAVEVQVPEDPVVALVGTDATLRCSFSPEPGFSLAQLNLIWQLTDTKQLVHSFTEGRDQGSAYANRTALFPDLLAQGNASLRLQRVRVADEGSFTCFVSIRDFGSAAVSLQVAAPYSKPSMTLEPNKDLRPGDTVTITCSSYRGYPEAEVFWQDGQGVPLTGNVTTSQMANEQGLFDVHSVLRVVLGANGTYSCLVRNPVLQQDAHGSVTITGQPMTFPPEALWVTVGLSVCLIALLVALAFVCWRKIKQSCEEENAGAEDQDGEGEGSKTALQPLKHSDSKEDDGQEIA
Nature of the assay: flow cytometry on 293T cells transfected with B7-H3 (4Ig).

In assay [7] the target is T1, human B7-H2, full length, expressed on …. Nature of the assay: flow cytometry on 293T cells transfected with B7-H2.
For assay [8], the target named is T3, human B7-DC expressed on 293T cells. Briefly: flow cytometry on 293T cells transfected with B7-DC.
The target of assay [9] is T5, human B7-H1 expressed on 293T cells. Nature of the assay: flow cytometry on 293T cells transfected with B7-H1.
Assay [10] deals with T2, human B7-1 (CD80) expressed on 293T …. Nature of the assay: flow cytometry on 293T cells transfected with B7-1.
The target in assay [11] is T4, human B7-2 (CD86, B70) expressed on …. Nature of the assay: flow cytometry on 293T cells transfected with B7-2.
In assay [12] the target is T7, human B7-H3, 2Ig form, expressed on 293T cells (human, UniProt Q5ZPR3-2 29-316).
T7 construct: whole, on cells
T7 sequence (looked up): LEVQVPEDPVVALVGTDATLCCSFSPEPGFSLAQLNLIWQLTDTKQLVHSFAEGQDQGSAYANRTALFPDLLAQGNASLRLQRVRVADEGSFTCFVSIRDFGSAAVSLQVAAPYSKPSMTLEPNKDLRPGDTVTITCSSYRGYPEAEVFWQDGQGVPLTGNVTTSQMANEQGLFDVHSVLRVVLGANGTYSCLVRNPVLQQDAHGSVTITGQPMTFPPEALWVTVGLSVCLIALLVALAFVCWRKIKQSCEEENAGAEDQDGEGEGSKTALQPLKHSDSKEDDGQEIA
Briefly: flow cytometry on 293T cells transfected with B7-H3 (2Ig).

For assay [13], the target named is T8, human B7-H7, full length, expressed on transfected cells (B7-H7+ cells) (human, UniProt Q9UM44 23-414).
T8 construct: also called HHLA2
T8 sequence: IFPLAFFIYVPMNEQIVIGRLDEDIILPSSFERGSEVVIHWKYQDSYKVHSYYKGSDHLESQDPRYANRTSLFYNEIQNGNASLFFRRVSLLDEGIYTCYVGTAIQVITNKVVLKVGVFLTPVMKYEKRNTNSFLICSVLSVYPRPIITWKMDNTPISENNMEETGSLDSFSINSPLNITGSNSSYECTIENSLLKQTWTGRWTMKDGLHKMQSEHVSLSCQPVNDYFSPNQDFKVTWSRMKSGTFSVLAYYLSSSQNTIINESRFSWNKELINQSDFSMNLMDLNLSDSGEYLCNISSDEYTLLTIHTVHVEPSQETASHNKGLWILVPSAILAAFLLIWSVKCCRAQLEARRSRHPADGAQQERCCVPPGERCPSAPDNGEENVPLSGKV
Nature of the assay: flow cytometry on B7-H7 transfected cells (sheet: B7-H7+ 293T; legend: CHO cells); B7-H7CRIg at 10 µg/ml.

In assay [14] the target is T9, human B7-H4 expressed on 293T cells (human, UniProt Q7Z7D3 25-282).
T9 construct: whole, on cells
T9 sequence (looked up): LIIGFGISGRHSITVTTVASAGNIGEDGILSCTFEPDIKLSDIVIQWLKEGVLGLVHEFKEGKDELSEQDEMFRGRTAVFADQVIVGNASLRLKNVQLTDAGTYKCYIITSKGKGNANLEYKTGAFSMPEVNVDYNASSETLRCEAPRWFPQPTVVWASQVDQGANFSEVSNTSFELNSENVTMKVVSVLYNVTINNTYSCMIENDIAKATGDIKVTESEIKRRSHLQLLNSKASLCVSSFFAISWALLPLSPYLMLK
Briefly: flow cytometry on 293T cells transfected with B7-H4.

T5 sequence (Q9NZQ7 19-290): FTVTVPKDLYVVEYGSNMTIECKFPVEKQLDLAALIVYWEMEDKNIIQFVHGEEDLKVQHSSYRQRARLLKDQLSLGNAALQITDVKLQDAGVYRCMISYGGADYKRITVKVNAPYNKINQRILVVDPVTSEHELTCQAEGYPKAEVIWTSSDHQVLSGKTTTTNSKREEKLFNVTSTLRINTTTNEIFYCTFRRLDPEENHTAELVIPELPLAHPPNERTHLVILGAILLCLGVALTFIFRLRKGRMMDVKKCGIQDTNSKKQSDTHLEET

B1: human B7-2Ig fusion protein (Fc fusion, UniProt P42081 26-245, looked up)
chain: LKIQAYFNETADLPCQFANSQNQSLSELVVFWQDQENLVLNEVYLGKEKFDSVHSKYMGRTSFDSDSWTLRLHNLQIKDKGLYQCIIHHKKPTGMIRIHQMNSELSVLANFSQPEIVPISNITENVYINLTCSSIHGYPEPKKMSVLLRTKNSTIEYDGVMQKSQDNVTELYDVSISLSVSFPDVTSNMTIFCILETDKTRLLSSPFSIELEDPQPPPDH
notes: Bought from R&D Systems; Ig (Fc) part not given
With B1, the binding result in assay [1], in [2], in [3], in assay [4] and in [5] was “no binding” in each case.

B2: human B7-H7CRIg fusion protein (Fc fusion)
chain: LSVQQGPNLLQVRQGSQATLVCQVDQATAWERLRVKWTKDGAILCQPYITNGSLSLGVCGPQGRLSWQAPSHLTLQLDPVSLNHSGAYVCWAAVEIPELEEAEGNITRLFVDPDDPTQNRNRIASFPG
notes: also called B7-H67CRIg; not shown: Ig Fc tag; made from pMIgV or pHIgV plasmid
For B2, the binding result in assay [6], in assay [7], in assay [8], in assay [9], in assay [10] and in assay [11] was “no binding (tested: 10 µg/ml)” throughout. In addition, the binding result is “no binding (tested: 10 µg/ml)” in assay [12], “binds” in [13] and “no binding (tested: 10 µg/ml)” in [14].
